In the supplement of paper PMC9170038:

System: MS2 coat protein
Assay: apparent KD of MS2 coat protein; designed switch direction (-1 OFF switch, 1 ON switch): -1; higher = weaker reporter binding
Procedure, shortened: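 Transcription of designed RNA switches on Illumina chips was done by stalled E. coli RNA polymerase. SNAP-549-labelled MS2 coat protein was then titrated in doubling steps from 0.7 or 1.5 nM to 3 µM, with steps of 0.8–1.5 h at the lowest and 10–20 min at the highest concentration. The per-design median over clusters of curve-fitted normalised fluorescence is reported as apparent KD.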

[1] = Eterna round: R95, input ligand: FMN 200 uM
[2] = Eterna round: R95, input ligand: microRNA oligo, concentration not stated
[3] = Eterna round: R95, input ligand: none
[4] = input ligand: microRNA oligo, concentration not stated

Sequence	apparent KD of MS2 coat protein [1] [nM]	apparent KD of MS2 coat protein [2] [nM]	apparent KD of MS2 coat protein [3] [nM]	apparent KD of MS2 coat protein (input ligand: FMN 200 uM) [nM]	apparent KD of MS2 coat protein [4] [nM]	apparent KD of MS2 coat protein (input ligand: none) [nM]
GCCAGAGGAGGAUAUCUAAUAUAUCACAUGAGGAUCACCCAUGUCCAGCGAAAGCUGGAGGGAGAAGGCCUCUGGC [Fiskers Ex 5 - 23] (puzzle: Exclusion 5)	46	98.2	78.2			
GCCCGGCGUGUAGGAUAUGGUUCCGUUUCGGUUCCAGAAGGACAUGAGGAUACAUGAGGAUCACCCAUGUGGUCGUCACCGGGC [salish99_ExNG1_r04_402] (Eterna round: R96, puzzle: Exclusion NG 1)				37.4	26	38.7
GCCCGGGCAGGAUAUACAAUGAAGUUGAGAAAUCGGCUUCGACAUGAGGAUCACCCAUGUAGAAGGGCCCGGGC [-36.9, -34.6 kcal, A 28% 3] (Eterna round: R97, puzzle: Exclusion 2)				17.6		14.6
GCCCGGGCAGGAUAUACGUGGCCCGGGUAACCGGGCCUCAGACAUGAGGAUCACCCAUGUAGAAGGGCCCGGGC [-44, -43.8 kcal, A 22%] (Eterna round: R97, puzzle: Exclusion 2)				18.1		18.3
GCCGAAAAUGUGAGGAUAUACCUAUGGAAACAUAGGUAGAAGGCACAUGAGGAUCACCCAUGUUCCUCAUCGGC [Mat - Exclusion 4 - Eli Mod - D17] (Eterna round: R97, puzzle: Brourd's mod of Exclusion 4)				729		120
GCCGAUUAAGUGAGGAUAUACCUAUGGAUACAUAGGUAGAAGGCACAUGAGGAUCACCCAUGUAUCCUAUCGGC [Eli bmx4 4.27] (Eterna round: R97, puzzle: Brourd's mod of Exclusion 4)				517		59.8
GCCGGAUAAGUGAGGAUAUGCCUAUGGAUACGUAGGCAGAAGGCACAUGAGGAUCACCCAUGUACCUCUCCGGC [JL-BMX4-4.25 Eli mod] (Eterna round: R97, puzzle: Brourd's mod of Exclusion 4)				116		17.5
GCCGUACAAGGAUAUACAUGAGGAUCACCCAUGUGUCUCCUCGAGAGCAAACGGCUCUGUAGAAGGUGUCGUAA [EX3 C.20] (Eterna round: R97, puzzle: Exclusion 3)				16.5		15.6
GCCUAAGCAGGAUAUUCAAUAUGUCACAUGAGGAUCACCCAUGUCCAGCGAAAGCUGGAGGGAGAAGGGCUUAGGC [Mat - Exclusion 5 - Eli mod - D100] (puzzle: Exclusion 5)	21.1	101	106			
GCCUACCAGCUAGGAUAUGCAGUACAGUAAAAUGUAGAAGGAGCACGAUCCAGACAUGAGGAUCACCCAUGUGGGCGGCAGGCA [Raartive] (Eterna round: R96, puzzle: Exclusion NG 1)				19.7	17	22.8
GCCUCACAUGAGGAUCACCCAUGUCAGGAUAUACCCAUCCAGCGAAAUUAAAGCUGUAGUAGAAGGGACAUGCA [Bevebeis] (Eterna round: R97, puzzle: Exclusion 1)				53.7		18.4
GCCUGCUGGCGAGGAUAUCCUGUGCGGUUCCGGCUCGUGUCUGUUACAUGAGGAUCACCCAUGUGGGAGAAGGUGUCUGUGGCC [Design 99] (Eterna round: R96, puzzle: Exclusion NG 2)				17.7	15.7	22.4
GCCUUAUCUGUCAGGAUAUACAAUAAAAUAAUUAUGUAGAAGGGACAUGAGGAUCACCCAUGUACAUUACAUUG [alecazam25] (Eterna round: R97, puzzle: Brourd's mod of Exclusion 4)				50		22
GCGAAAGCAAGCAAGUGAAACAUGAGGAUCACCCAUGUCCUCAUUUGUUCGUCUUAUAAGCUAUGCGAAAGCAUAGC [Sensor 3, v1 - 7] (puzzle: Sensor v3, turn-off variant 1)	18.4	218	19.4			
GCGAUUUCCGAGGAUAUCCUGCACACUAUCUAAGGAGAAGGCGGAACUUGAGGAUCACCCAAGUGCAUCCGAAU [Isusbe] (Eterna round: R97, puzzle: Exclusion 6)				135		39.5
GCGCACCUACCAAAAGGUAGGCCCACAUGAGGAUCACCCAUGUAGGAUAUCGAUUGCUUUGCAGUCGAGAAGGACGUGAUGCGC [JL ENG3 3.80 Mod 17] (Eterna round: R96, puzzle: Exclusion NG 3)				25.7	11.6	18.3
GCGCACUAAGUGAGGAUAUCGAUUUCUUUAAGGAUCGAGAAGGCACAUGAGGAUCACCCAUGUUUGACGUGCGC [JR_BMOE4_Sub097] (puzzle: Brourd's mod of Exclusion 4)		15.5				
GCGCAGUCAGGAUAUGCCGCUGGCGAUCACCGUGGGCAAAGGCAGAAGGGACAUGAGGAUCACCCAUGUGGCGC [e4e Mirror Pins #2] (puzzle: Exclusion 4)		39				
GCGCUGCGAGGAUAUACAUGAGGAUCACCCAUGUGUCGGCAGCCAUGUUAGUACAAAUGUAGAAGGCGCGUAAA [EX3 #61] (Eterna round: R97, puzzle: Exclusion 3)				20.8		18.3
GCGGAUUAUGUAGGAUAUCGGUCAGUUUCUGAUCGAGAAGGACAUGAGGAUCACCCAUGUAAAUUCCUCGCUUUGUGAGGCCGC [JL ENG1 3.64] (Eterna round: R96, puzzle: Exclusion NG 1)				31.5	15.6	17.8
GCGGAUUAUGUAGGAUAUCGGUCAGUUUCUGAUCGAGAAGGACAUGAGGAUCACCCAUGUAAAUUGCUCGCUUUGUGAGCCCGC [JL ENG1 3.63] (Eterna round: R96, puzzle: Exclusion NG 1)				34.5	12.4	14.8
GCGGGCCCGGGAGGAUAUACAUGAGGAUCACCCAUGUGGGCCCGGGCCCGCGGGCCCGGGCCCGUGUAGAAGGCCCGGGCCCGC [-64.9, -63.3 kcal, A 14%] (Eterna round: R96, puzzle: Exclusion NG 2)				28	10.1	14.2
GCGGUACAUGAGGAUCACCCAUGUCAGGAUAUCCGCUGUUUGUUGAUAAGCAGGCGGUGGAGAAGGGACUUCGC [-26.7, -26 kcal, 23% A] (Eterna round: R97, puzzle: Exclusion 1)				39.7		33.8
GCGUAUGAGCAGGAUAUCCGACGGGAAUCCAAAGGAGAAGGGCUCACAUGAGGAUCACCCAUGUGGUCCAAAAC [Agediat] (puzzle: Exclusion 6)	109	24	27.3			
GCGUGACAUGAGGAUCACCCAUGUGAGGAUAUCUGGAUACUCUUUAUUUUAGAUAUCCAGAGAAGGCACAUGCU [Ex1-3: 4Z] (puzzle: Exclusion 1)		191				
GCUAGGCAUGUCAGGAUAUGCAGAUCCUUGGAUCUGCAGAAGGGACAUGAGGAUCACCCAUGUGCCAACCUAGC [Mat - Exclusion 4 - JL Mod - D11] (Eterna round: R97, puzzle: Brourd's mod of Exclusion 4)				609		47
GCUAUGGGAGGAUAUACAUGAGGAUCACCCAUGUGUAGAGCAUACGCGCGCAUUAACAGUAGAAGGCCCUGCGU [Eternabot (L1) Solution 23] (Eterna round: R97, puzzle: Exclusion 3)				50.7		49.4
GCUCACGCAGGAUAUACAUGAGGAUCACCCAUGUUCGAAGGGCGUGGGUACAAAGUCUGUAGAAGGGCGAAAAU [Edrereve] (Eterna round: R97, puzzle: Exclusion 3)				20.6		17.4
GCUCGAAGGAGUGGGAGCAACAUGAGGAUCACCCAUGUGCGGCUAUUUCAUGCUCGUCUUAAAGCUUUGCCCUAGCC [Eternabot (Original) Solution 40] (Eterna round: R97, puzzle: Sensor, turn-off variant 1)				17.2		18.5
GCUCGCGGGCAAGGAUAUCCUACGCUGUUCUGGUUCGUGUCUGUUACAUGAGGAUCACCCAUGUGGGAGAAGGUGCACCAGGGU [Design 49] (Eterna round: R96, puzzle: Exclusion NG 2)				17.5	12.4	20.1
